# Test results from the supplement of paper PMC9112550, “Optimization of the antimicrobial peptide Bac7 by deep mutational scanning” (BMC Biology, 2022).
# System: Escherichia coli TOP10
# Assay: shrunken log2 fold change of peptide-encoding DNA abundance (4.5 h post-induction vs induction); higher = less antimicrobial activity (less host growth inhibition)
# Details: time post-induction: 4.5 h; library: site-saturation at positions 5, 18, 19, 20
# 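Note: peptides expressed intracellularly from a pBAD plasmid library in pooled LB shake-flask culture, induced with 0.3% L-arabinose, DNA abundance read by NGS, three biological replicates, DESeq2 with apeglm shrinkage.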
row,Sequence,shrunken log2 fold change
1,RRIRMRPPRLPRPRPRPMFYPRP,-0.127
2,RRIRPRPPRLPRPRPRPSRSPRP,0.0328
3,RRIRHRPPRLPRPRPRPWYKPRP,-1.2
4,RRIRMRPPRLPRPRPRPFFHPRP,-0.243
5,RRIRYRPPRLPRPRPRPYSMPRP,-0.0134
6,RRIRCRPPRLPRPRPRPQDRPRP,-0.175
7,RRIRLRPPRLPRPRPRPAATPRP,0.379
8,RRIRARPPRLPRPRPRPMGPPRP,0.161
9,RRIRARPPRLPRPRPRPLLAPRP,0.949
10,RRIRERPPRLPRPRPRPNWQPRP,0.103
11,RRIRERPPRLPRPRPRPRRWPRP,0.267
12,RRIRWRPPRLPRPRPRPWIKPRP,-0.203
13,RRIRSRPPRLPRPRPRPTFKPRP,-0.0617
14,RRIRWRPPRLPRPRPRPYDCPRP,0.00333
15,RRIRIRPPRLPRPRPRPCERPRP,-0.0509
16,RRIRLRPPRLPRPRPRPTTDPRP,-0.287
17,RRIRDRPPRLPRPRPRPNPYPRP,-0.558
18,RRIRTRPPRLPRPRPRPGRHPRP,0.0235
19,RRIRCRPPRLPRPRPRPKGYPRP,-0.0908
20,RRIRLRPPRLPRPRPRPPNVPRP,0.0883
21,RRIRFRPPRLPRPRPRPVSMPRP,0.174
22,RRIRWRPPRLPRPRPRPICMPRP,-0.242

row,Sequence,shrunken log2 fold change
1,RRIRVRPPRLPRPRPRPIDYPRP,0.0808
2,RRIRGRPPRLPRPRPRPHDGPRP,0.0288
3,RRIRQRPPRLPRPRPRPAQLPRP,0.0104
4,RRIRMRPPRLPRPRPRPFMQPRP,-0.00899
5,RRIRTRPPRLPRPRPRPPIAPRP,0.328
6,RRIRIRPPRLPRPRPRPHYQPRP,-0.463
7,RRIRRRPPRLPRPRPRPLNIPRP,-0.651
8,RRIRRRPPRLPRPRPRPFMDPRP,-0.148
9,RRIRGRPPRLPRPRPRPLEAPRP,1.44
10,RRIRDRPPRLPRPRPRPLYKPRP,0.00521
11,RRIRFRPPRLPRPRPRPATWPRP,0.317
12,RRIRFRPPRLPRPRPRPQAKPRP,0.128
13,RRIRARPPRLPRPRPRPIRRPRP,0.24
14,RRIRQRPPRLPRPRPRPKWTPRP,-0.164
15,RRIRFRPPRLPRPRPRPNQEPRP,0.229
16,RRIRWRPPRLPRPRPRPTKDPRP,0.214
17,RRIRSRPPRLPRPRPRPETAPRP,0.667
18,RRIRYRPPRLPRPRPRPDTGPRP,-0.808
19,RRIRSRPPRLPRPRPRPYYTPRP,-0.576
20,RRIRWRPPRLPRPRPRPCHHPRP,-0.723
21,RRIRKRPPRLPRPRPRPDDDPRP,3.89
22,RRIRPRPPRLPRPRPRPMRQPRP,0.398

row,Sequence,shrunken log2 fold change
1,RRIRDRPPRLPRPRPRPDCMPRP,0.781
2,RRIRDRPPRLPRPRPRPFSWPRP,0.198
3,RRIRIRPPRLPRPRPRPCYDPRP,-0.014
4,RRIRIRPPRLPRPRPRPWPKPRP,-0.122
5,RRIRHRPPRLPRPRPRPCRMPRP,0.0591
6,RRIRYRPPRLPRPRPRPHVCPRP,-0.358
7,RRIRVRPPRLPRPRPRPGLFPRP,0.0268
8,RRIRRRPPRLPRPRPRPVQEPRP,-0.00475
9,RRIRVRPPRLPRPRPRPYNGPRP,-0.514
10,RRIRCRPPRLPRPRPRPEIWPRP,0.471
11,RRIRHRPPRLPRPRPRPPTSPRP,-0.128
12,RRIRKRPPRLPRPRPRPIKLPRP,-0.243
13,RRIRPRPPRLPRPRPRPCGQPRP,0.311
14,RRIRHRPPRLPRPRPRPAGDPRP,0.309
15,RRIRKRPPRLPRPRPRPSEEPRP,0.1
16,RRIRPRPPRLPRPRPRPGQAPRP,-0.0745
17,RRIRGRPPRLPRPRPRPLHGPRP,0.212
18,RRIRLRPPRLPRPRPRPMMLPRP,-0.335
19,RRIRSRPPRLPRPRPRPHCEPRP,-0.0301
20,RRIRRRPPRLPRPRPRPPKNPRP,0.671
21,RRIRCRPPRLPRPRPRPNVFPRP,-0.24
22,RRIRIRPPRLPRPRPRPEECPRP,0.0287

row,Sequence,shrunken log2 fold change
1,RRIRYRPPRLPRPRPRPLATPRP,-0.378
2,RRIRYRPPRLPRPRPRPESVPRP,-0.316
3,RRIRVRPPRLPRPRPRPKPEPRP,0.326
4,RRIRKRPPRLPRPRPRPNAFPRP,0.0186
5,RRIRQRPPRLPRPRPRPLTAPRP,0.0683
6,RRIRRRPPRLPRPRPRPYPEPRP,0.00427
7,RRIRERPPRLPRPRPRPLWCPRP,-0.0233
8,RRIRNRPPRLPRPRPRPLSQPRP,-0.00581
9,RRIRNRPPRLPRPRPRPCHGPRP,-0.00208
10,RRIRSRPPRLPRPRPRPCNPPRP,-0.212
11,RRIRHRPPRLPRPRPRPQPKPRP,0.24
12,RRIRFRPPRLPRPRPRPVRKPRP,-0.355
13,RRIRMRPPRLPRPRPRPAFGPRP,1.05
14,RRIRKRPPRLPRPRPRPLNCPRP,-0.0221
15,RRIRLRPPRLPRPRPRPTHLPRP,-0.12
16,RRIRNRPPRLPRPRPRPWDIPRP,-0.00804
17,RRIRGRPPRLPRPRPRPRGLPRP,1.05
18,RRIRRRPPRLPRPRPRPGSSPRP,0.103
19,RRIRDRPPRLPRPRPRPLLNPRP,0.124
20,RRIRLRPPRLPRPRPRPCWPPRP,0.0177
21,RRIRNRPPRLPRPRPRPTFHPRP,-0.422
22,RRIRGRPPRLPRPRPRPRDFPRP,0.619

row,Sequence,shrunken log2 fold change
1,RRIRDRPPRLPRPRPRPIAFPRP,0.15
2,RRIRERPPRLPRPRPRPMIEPRP,-0.184
3,RRIRSRPPRLPRPRPRPMFDPRP,-0.0808
4,RRIRGRPPRLPRPRPRPVMKPRP,0.729
5,RRIRWRPPRLPRPRPRPDYPPRP,-0.169
6,RRIRHRPPRLPRPRPRPTVEPRP,-0.0265
7,RRIRRRPPRLPRPRPRPDPGPRP,-0.0599
8,RRIRMRPPRLPRPRPRPHKPPRP,0.0226
9,RRIRHRPPRLPRPRPRPEIVPRP,-0.0182
10,RRIRERPPRLPRPRPRPFTTPRP,-0.381
11,RRIRERPPRLPRPRPRPGHFPRP,0.0631
12,RRIRTRPPRLPRPRPRPGMPPRP,-0.0497
13,RRIRCRPPRLPRPRPRPFASPRP,0.0328
14,RRIRIRPPRLPRPRPRPQNKPRP,-0.668
15,RRIRERPPRLPRPRPRPKFTPRP,-0.147
16,RRIRLRPPRLPRPRPRPGWVPRP,0.117
17,RRIRDRPPRLPRPRPRPMTPPRP,-0.0805
18,RRIRCRPPRLPRPRPRPFEAPRP,0.102
19,RRIRWRPPRLPRPRPRPAYDPRP,0.126
20,RRIRWRPPRLPRPRPRPLYRPRP,-0.552
21,RRIRFRPPRLPRPRPRPIWFPRP,-0.129
